According to PMC4558366 (Cell reports, 2015):

Biological target: T1, UHRF1_(647-687) (human, UniProt Q96T88-2 647-687)
T1 chain (looked up): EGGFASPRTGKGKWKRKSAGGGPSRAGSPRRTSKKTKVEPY
Assay: ITC

B1: USP7 UBL1-2 E736A (domain or fragment)
chain: EAHLYMQVQIVAEDQFCGHQGNDMYDEEKVKYTVFKVLKNSSLAEFVQSLSQTMGFPQDQIRLWPMQARSNGTKRPAMLDNEADGNKTMIELSDNENPWTIFLETVDPELAASGATLPKFDKDHDVMLFLKMYDPKTRSLNYCGHIYTPISCKIRDLLPVMCDRAGFIQDTSLILYAEVKPNLTERIQDYDVSLDKALDELMDGDIIVFQKDDPENDNSELPTAKEYFRDLYH
Question: For B1, which “fold reduction of binding affinity against wild type” value is on record?
Answer: Its value is 4 fold.
